T1: hiR2-FL-W526A-T7 (human, UniProt Q6PJF5 1-856)
T1 sequence: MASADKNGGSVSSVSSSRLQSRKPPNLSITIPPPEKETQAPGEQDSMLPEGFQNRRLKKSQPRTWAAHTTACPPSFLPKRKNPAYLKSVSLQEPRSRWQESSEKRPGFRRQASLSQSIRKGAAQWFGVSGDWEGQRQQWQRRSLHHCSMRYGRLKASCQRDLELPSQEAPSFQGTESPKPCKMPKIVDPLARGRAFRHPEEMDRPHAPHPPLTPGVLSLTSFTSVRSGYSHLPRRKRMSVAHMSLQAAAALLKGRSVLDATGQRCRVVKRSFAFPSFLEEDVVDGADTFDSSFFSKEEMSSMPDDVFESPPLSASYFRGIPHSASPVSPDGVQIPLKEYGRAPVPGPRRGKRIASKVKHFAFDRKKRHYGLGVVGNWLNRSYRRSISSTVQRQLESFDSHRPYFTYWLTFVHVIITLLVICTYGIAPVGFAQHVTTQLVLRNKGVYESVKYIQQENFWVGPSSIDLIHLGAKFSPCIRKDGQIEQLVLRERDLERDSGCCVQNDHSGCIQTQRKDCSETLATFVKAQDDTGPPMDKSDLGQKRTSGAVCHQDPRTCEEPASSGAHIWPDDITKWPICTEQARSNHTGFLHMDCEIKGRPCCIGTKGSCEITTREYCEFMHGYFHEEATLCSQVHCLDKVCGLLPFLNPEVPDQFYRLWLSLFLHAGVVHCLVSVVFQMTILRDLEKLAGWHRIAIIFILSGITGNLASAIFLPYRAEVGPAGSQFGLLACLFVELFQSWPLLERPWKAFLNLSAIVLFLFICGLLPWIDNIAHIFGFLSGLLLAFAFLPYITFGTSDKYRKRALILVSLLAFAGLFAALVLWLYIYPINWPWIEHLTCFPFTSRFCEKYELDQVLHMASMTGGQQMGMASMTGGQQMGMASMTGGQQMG

T2: hiR2-FL-D535A-T7 (human, UniProt Q6PJF5 1-856)
T2 sequence: T1 sequence with A526W, D535A

B1: antibody 3 (antibody, V domains shown)
VH: QVTLKESGPGILQPSQTLSLTCSFSGFSLTTFAMGIGWVRQPSGKGLEWLAHIWWDGEKYNNPVLKSRLTISKDTSKNQVFLRIANVDTPDTATYYCARISSIYYIIDNWGQGTSVTVSS
VL: DIVLTQSPATLSVTPGHSVSLSCRASQSISNNLHWYQKKSHESPRLLIKYVSQSISGIPSRFSGSGSGTDFTLSINSVETEDFGMYFCQQSYNWPLTFGAGTKLELK
notes: mouse IgG, kappa light chain; also called clone #3; purified antibody 3
B2: antibody 48 (antibody, V domains shown)
VH: QVQLQQSGTELVRPGTSVKVSCKASGYAFTNYLIEWVKQRPGQGLEWIGVINPGSGFTKYNEKFKGKATLTADKSSSTVYMHLSSLTSEDSAVYFCARGLYRAMDYWGQGTSVTVSS
VL: DIQMTQSPASQSASLGESVTITCLASQTIATWLAWYQQKPGKSPQLLIYGATTLADGVPSRFSGGGSGTKFSFKISSLQAEDFVSYYCQQLYSTPYTFGGGTKLEIK
notes: mouse IgG, kappa light chain; also called clone #48; purified antibody 48
B3: antibody 50 (antibody, V domains shown)
VH: B2 VH with T9A, T16A, T30S, V79A, H82Q
VL: B2 VL with A30G, G50A, T52A, T53S, S85N, L91I
notes: mouse IgG, kappa light chain; also called clone #50; purified antibody 50
B4: antibody 5 (antibody, V domains shown)
VH: QVTLKESGPGILQPSQTLSLTCSFSGFSLSTFGMGVGWIRQPSGKGLEWLAHIWWDDEKYYNSALKSRLTISKATSKNQAFLKIANVDTADTATYYCARISNYGSNYWYFNVWGTGTTVTVSS
VL: QVVLTQSPALMSASPGEKVTMTCSAGSSVSCMYWYQQKPGSSPRVLIYDTSNLASGVPARFTGSGSGTSYSLTISRMEAEDAASYYCQQWNSYPLTFGAGTKLELK
notes: mouse IgG, kappa light chain; also called clone #5; purified antibody 5
B5: antibody 44 (antibody, V domains shown)
VH: B4 VH with G44E, E58D, S63P, A74D, A80I, A85T, D91E, A98S, S101G, N111D
VL: QIVLTQSPAVMSASPGEKVTMTCTASSSVYYMYWYQQTPGSSPRLLIYDTSNLASGVPVRFSGSGSGTSYSLTISRMEAEDAATYYCQQWNTYPLTFGAGTKLELK
notes: mouse IgG, kappa light chain; also called clone #44; purified antibody 44
B6: antibody 43 (antibody, V domains shown)
VH: B4 VH with T3A, P42S, H52N, E58D, S63P, A74D, T75A, S101G, N111D
VL: QIVLTQSPAIMSASPGERVTMTCSANSRISYMYWYQQKPGSSPRLLIYDTSNLASGVPVRFSGSGSGTSYSLTISRMEAEDAATYNCQQWSSYPLTFGAGTKLELK
notes: mouse IgG, kappa light chain; also called clone #43; purified antibody 43
B7: antibody 42 (antibody, V domains shown)
VH: B4 VH with F24L, M34R, S63P, A74D, A80V, K83R, S101Q, N111D
VL: B6 VL with Q1L, R18K, S24G, N26T, Y33F, L45V, M77V, A82V, N86Y, S91N
notes: mouse IgG, kappa light chain; also called clone #42; purified antibody 42
B8: antibody 22 (antibody, V domains shown)
VH: B4 VH with A80V
VL: B4 VL with C31Y, S84T
notes: mouse IgG, kappa light chain; also called clone #22; purified antibody 22
B9: antibody 34 (antibody, V domains shown)
VH: QVTLKESGPGILQPSQTLSLTCSFSGFSLSTFSLGVGWIRQSSGKGLEWLAHIWWDDEKYYNPALKSRLTISKDTSKNQVFLKIANVDAADTATYYCARAYYSKSYYALDYWGQGTSVTVSS
VL: DIQMTQSPSSLSASLGERVSLTCRASQEISGYLSWLQQKPDGTIKRLIYAASTLDSGVPKRFSGSRSGSDYSLAISSLESEDFADYYCLQYANFPFTFGSGTKLEIK
notes: mouse IgG, kappa light chain; also called clone #34; purified antibody 34

Results on 9 molecules are retold here after patent US20240287172A1 (SCIRHOM, published 2024).

Where a chain is given by its changes, count along the chain named. Where only a bound is given, the exact number is not on record here.

One experiment concerns the target T1, hiR2-FL-W526A-T7. The experiment in a line: FACS on MEF-DKO cells expressing the variant, 3 µg/ml antibody. The method, then: (§1) To pellet cells and remove supernatants, the plates were centrifuged at 1,500 rpm and 4° C. for 3 minutes. For primary staining, cells were resuspended in 100 μl per well of either FACS buffer alone (controls) or the purified antibodies 3, 5, 16, 22, 34, 42, 43, 44, 48, and 50 of the invention at 3 μg/ml in FACS buffer and incubated on ice for 1 hour. Afterwards, plates were centrifuged at 1,500 rpm and 4° C. for 3 minutes and washed twice with 200 μl per well of FACS buffer. For secondary staining, cells were spun down and resuspended in 100 μl per well of PE-conjugated goat anti-mouse IgG F(ab′)2 detection fragment (Dianova, Germany) diluted 1:100 in FACS buffer. Protected from light, the cell suspensions were incubated on ice for 1 hour. Plates were then centrifuged at 1,500 rpm and 4° C. for 3 minutes and washed three times with 200 μl per well of FACS buffer. Finally, cells were resuspended in 150 μl per well of FACS buffer and analyzed using a BD Accuri™ C6 Plus flow cytometer (Becton Dickinson, Germany).
In the case of B1, the “loss of binding vs wild type” value was at least 30%. Regarding B2, the “loss of binding vs wild type” value was at least 30%. As for B3, the “loss of binding vs wild type” value was at least 30%. The same measure, in the same setting: as for B4, the figure is at least 60%; as for B5, at least 30%; as for B6, at least 30%. Take B7: the “loss of binding vs wild type” value was at least 30%.

For B8, the “loss of binding vs wild type” value was at least 30%. As for B9, the “loss of binding vs wild type” value was at least 60%.

The next experiment has as its target T2, hiR2-FL-D535A-T7. The experiment is described as above. The method, then: as §1
B1: the “loss of binding vs wild type” value was at least 60%. In the case of B4, the “loss of binding vs wild type” value is at least 60%. As to B5, the “loss of binding vs wild type” value is at least 30%. Turning to B7, the “loss of binding vs wild type” value was at least 30%.

Take B8: the “loss of binding vs wild type” value was at least 30%.

For B9, the “loss of binding vs wild type” value was at least 30%.
